Data taken from US20240210419A1 (UNIVERSITY OF VIRGINIA PATENT FOUNDATION, published 2024).

Tests used:
[1] = biological target: FN-9*-10 recombinant fibronectin fragment (normal form mimic) (UniProt P02751); test: ELISA, fibronectin fragment tethered to maleimide activated plate, colorimetric detection
[2] = biological target: FN-9*-10 recombinant fibronectin fragment (normal form mimic) (UniProt P02751); test: ELISA, fibronectin fragment tethered on maleimide-activated plate, colorimetric detection (absorbance)
[3] = biological target: T1, FN-4G-10 recombinant fibronectin fragment (diseased form mimic) (UniProt P02751 1448-1537; P02751 1538-1631, limits assumed); test: ELISA, fibronectin fragment tethered to maleimide activated plate, colorimetric detection
T1 construct: domain: 9th type III repeat;domain: 10th type III repeat; also called FnIII9-4G-10; FnIII-4G-10
From the text: (§1) In vitro ELISA binding assays were employed to determine the efficacy of binding of H5 antibodies and derivatives thereof to the diseased form (dise) and the healthy form (norm) of fibronectin. Maleimide activated ELISA plates were used to tether the recombinant fibronectin fragments, which were named as FN-4G-10 and FN-9*-10, and they mimicked diseased and normal form of FN, respectively. Both formats of H5 were used in different molar concentrations starting with 10^-5M and ending with 10-11M. Bound antibodies were detected by colorimetric method.
(§2) The data represents the combination of two independent experiments, one comparing E. coli (eH5) versus N. benthamiana (nicoH5) produced H5-scFv and the second comparing H5-scFv (scFv) to H5-IgG1 (H5-IgG). […] Further, it discriminated the two fragments showing higher affinity for FN-4G-10 (diseased form) compared to FN-9*-10 (Healthy form).

[4] = biological target: T1, FN-4G-10 recombinant fibronectin …; test: ELISA, fibronectin fragment tethered on maleimide-activated plate, colorimetric detection (absorbance)
From the text: as §1, §2

[5] = biological target: FN-4G-10 recombinant fibronectin fragment (diseased form mimic) (UniProt P02751); test: as above
Sequence of FN-4G-10 recombinant fibronectin fragment (diseased form mimic) (UniProt P02751) (P02751 other isoform, or with tags, fused parts or gaps limits assumed): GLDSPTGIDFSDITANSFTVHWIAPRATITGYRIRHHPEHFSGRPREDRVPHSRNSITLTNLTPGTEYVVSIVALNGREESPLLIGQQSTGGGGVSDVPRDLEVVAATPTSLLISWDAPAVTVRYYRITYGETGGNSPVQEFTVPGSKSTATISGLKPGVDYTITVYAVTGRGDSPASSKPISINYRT

Sequence of FN-9*-10 recombinant fibronectin fragment (normal form mimic) (P02751 1448-1631): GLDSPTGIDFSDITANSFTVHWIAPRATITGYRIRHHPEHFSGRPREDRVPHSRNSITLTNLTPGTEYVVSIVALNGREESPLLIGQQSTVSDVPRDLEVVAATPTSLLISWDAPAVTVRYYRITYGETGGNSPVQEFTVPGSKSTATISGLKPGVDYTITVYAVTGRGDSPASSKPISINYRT
T1 sequence (P02751 other isoform, or with tags, fused parts or gaps limits assumed): as the sequence (P02751 other isoform, or with tags, fused parts or gaps limits assumed) above

fold higher binding than the H5-scFv format at equimolar concentration [1] [fold] | EC50 (read off the curve) [2] [nM] | fold higher binding than the H5-scFv format at equimolar concentration [3] [fold] | EC50 (read off the curve) [4] [nM] | EC50 (read off the curve) [5] [nM] | Binder
> 50 | 10 | ≥ 50 | ~4 | – | modified H5-IgG1 antibody (antibody, V domains shown, Full length IgG1 format; Made in a plug-and-(dis)play (PnP) hybridoma cell line; also called modified IgG1 format of H5) VH: EVQLLESGGGLVQPGGSLRLSCAASGFTFSSYAMSWVRQAPGKGLEWVSDIYDGGGTNYADSVKGRFTTSRDNSKNTLYLQMNSLRAEDTAVYYCAKTADNFDYWGQGTLVTVSS VL: DIQMTQSPSSLSASVGDRVTITCRASQSISSYLNWYQQKPGKAPKLLIYAASTLQSGVPSRFSGSGSGTDFTLTISSLQPEDFATYYCQQANSAPTTFGQGTKVEIKR
– | 100 | – | – | 100 | unmodified H5 antibody (H5-scFv) produced in E. coli (scFv, part only; not given: scFv linker, domain order, tags, V domains shown, not shown: another chain or arm of the molecule; small tags and cut ends) VH: EVQLLESGGGLVQPGGSLRLSCAASGFTFSSYAMSWVRQAPGKGLEWVSDIYDGGGTNYADSVKGRFTTSRDNSKNTLYLQMNSLRAEDTAVYYCAKTADNFDYWGQGTLVTVSS VL: DIQMTQSPSSLSASVGDRVTITCRASQSISSYLNWYQQKPGKAPKLLIYAASTLQSGVPSRFSGSGSGTDFTLTISSLQPEDFATYYCQQANSAPTTFGQGTKVEIK
